Source: the supplement of paper PMC10126150
± gives the standard deviation of the averaged measurements.

System: ATP
Experiment: switch fluorescence ratio, 500 uM ATP over buffer (Cy3 cluster intensity, sum of 5 cycles each) (fold (ratio)); higher = stronger signal-on switching upon ATP binding; sequences stand for … in TCGTCGGCAGCGTCAGATGTGTATAAGAGACAGTTTTTTTTTTTTTTTTTTTTTTTTT…TC
Conditions: aptamer strand: ATP DNA aptamer (quencher-CACCTGGGGGAGTATTGCGGAGGAAGG + anchor), 100 nM annealed; ATP concentration: 500 uM
How it was run: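 After annealing to 100 nM quencher-labelled ATP aptamer, Cy3-labelled switching-strand clusters on a modified Illumina MiSeq flow-cell were imaged in selection buffer. A second image followed after 15 min with 500 uM ATP at 22 °C, and five such buffer/ATP cycles were done, each separated by NaOH stripping and re-annealing. The fluorescence ratio, averaged per switch-domain sequence, is summed target-cycle over summed buffer-cycle Cy3 intensity per cluster, with clusters outside 100-1000 RFU excluded.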
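Note: ATP exposure 15 min at 22 °C before imaging.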

Row | Sequence | switch fluorescence ratio
1 | CAAGAATCTG | 0.9606 ± 0.0091
2 | CAAGAGAATT | 0.9939 ± 0.005
3 | CAAGAGGGCT | 1.024 ± 0.0043
4 | CAAGAGGGGT | 1.01 ± 0.016
5 | CAAGATAGGG | 1.01 ± 0.026
6 | CAAGATGCTC | 1.43 ± 0.03
7 | CAAGATGGGG | 0.95 ± 0.023
8 | CAAGATTCGG | 0.986 ± 0.018
9 | CAAGCATTTT | 1.011 ± 0.0016
10 | CAAGCGGATT | 1 ± 0.033
11 | CAAGCTAGCG | 1.04 ± 0.016
12 | CAAGCTTGAA | 0.963 ± 0.026
13 | CAAGGAGGGT | 0.9726 ± 0.0079
14 | CAAGGAGTTA | 1.01 ± 0.04
15 | CAAGGGGACG | 1.004 ± 0.0082
16 | CAAGGGGGGC | 0.972 ± 0.03
17 | CAAGGGGTCG | 0.9946 ± 0.0066
18 | CAAGGGTATG | 1.03 ± 0.046
19 | CAAGGGTCGG | 0.996 ± 0.033
20 | CAAGGTGGAT | 1.051 ± 0.009
21 | CAAGGTTATA | 1 ± 0.022
22 | CAAGTACGGA | 1.1 ± 0.17

Row | Sequence | switch fluorescence ratio
23 | CAAGTATCGG | 0.973 ± 0.027
24 | CAAGTATGGG | 0.974 ± 0.035
25 | CAAGTATTTA | 1.03 ± 0.011
26 | CAAGTCAAGA | 1.0299 ± 0.00028
27 | CAAGTCAAGG | 1.007 ± 0.0062
28 | CAAGTCAGTA | 0.991 ± 0.025
29 | CAAGTCTATT | 1.01 ± 0.04
30 | CAAGTGCCTG | 1.01 ± 0.025
31 | CAAGTGTATC | 1.02 ± 0.045
32 | CAAGTGTTGG | 1.01 ± 0.05
33 | CAAGTTAAAG | 1.01 ± 0.015
34 | CAAGTTGTGT | 0.9774 ± 0.0087
35 | CAAGTTTTTG | 1.01 ± 0.033
36 | CAATAAAATC | 0.9924 ± 0.0019
37 | CAATAAGGGG | 1.04 ± 0.1
38 | CAATAATGTG | 0.968 ± 0.034
39 | CAATACAGGG | 1.04 ± 0.042
40 | CAATAGATGG | 0.999 ± 0.016
41 | CAATAGTAGA | 1.01 ± 0.036
42 | CAATATAGTG | 0.981 ± 0.024
43 | CAATATATTT | 0.982 ± 0.0049
44 | CAATATCCCG | 1.05 ± 0.028

Row | Sequence | switch fluorescence ratio
45 | CAATATGACT | 0.991 ± 0.092
46 | CAATCACAGG | 1.286 ± 0.0086
47 | CAATCGACCT | 1.27 ± 0.046
48 | CAATCTAAAT | 0.969 ± 0.027
49 | CAATGAAAGC | 1.04 ± 0.021
50 | CAATGAGCCG | 1.02 ± 0.052
51 | CAATGAGTTT | 0.97 ± 0.033
52 | CAATGATTGA | 1.02 ± 0.018
53 | CAATGCATGC | 1.14 ± 0.082
54 | CAATGCGGGG | 1.01 ± 0.023
55 | CAATGGAAAT | 0.984 ± 0.025
56 | CAATGGAGAA | 1.01 ± 0.021
57 | CAATGGAGGA | 1.011 ± 0.0058
58 | CAATGGCCTG | 0.984 ± 0.013
59 | CAATGGGAG | 0.988 ± 0.014
60 | CAATGGGGTA | 0.992 ± 0.012
61 | CAATGGGGTT | 1.02 ± 0.027
62 | CAATGGTTCA | 1.01 ± 0.013
63 | CAATGTCGTT | 0.985 ± 0.047
64 | CAATGTCTGG | 1.008 ± 0.0027
65 | CAATGTGAAA | 1.008 ± 0.0093
66 | CAATTATGAC | 1 ± 0.045

Row | Sequence | switch fluorescence ratio
67 | CAATTCCGTG | 1.02 ± 0.022
68 | CAATTGCAAT | 1.02 ± 0.02
69 | CAATTGCGTA | 0.981 ± 0.068
70 | CAATTGGCCT | 1.05 ± 0.03
71 | CAATTGGTAC | 1.05 ± 0.013
72 | CAATTGTCGT | 0.991 ± 0.033
73 | CAATTGTGGG | 0.996 ± 0.026
74 | CAATTTAATG | 0.999 ± 0.019
75 | CAATTTACGG | 1.1 ± 0.036
76 | CAATTTCCAG | 1.02 ± 0.026
77 | CAATTTGAAG | 0.978 ± 0.051
78 | CAATTTGTGG | 0.968 ± 0.021
79 | CAATTTTATA | 1.033 ± 0.0026
80 | CAATTTTGGA | 1.01 ± 0.028
81 | CACAACACTC | 1.37 ± 0.044
82 | CACAACGGTG | 1.04 ± 0.033
83 | CACAAGGACG | 0.962 ± 0.017
84 | CACAGCAGTC | 2.62 ± 0.34
85 | CACAGGCCCA | 1.04 ± 0.056
